Experimental findings from patent US20100076060, “Aptamers as agonists” (DUKE UNIVERSITY, published 2010) are described below.

This data set has as its target T1, OX40 (CD134) (Mus musculus, UniProt P47741 P47741:20-211).
T1 sequence: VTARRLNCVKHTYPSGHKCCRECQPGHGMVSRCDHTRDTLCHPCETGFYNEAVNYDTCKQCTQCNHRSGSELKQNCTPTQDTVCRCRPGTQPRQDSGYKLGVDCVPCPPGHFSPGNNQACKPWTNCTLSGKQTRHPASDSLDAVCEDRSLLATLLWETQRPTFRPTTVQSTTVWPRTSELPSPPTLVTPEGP
The experiment in a line: filter; 20 mM Hepes pH 7.4, 150 mM NaCl, 2 mM CaCl2; Kd not given. The note with it: tags: human IgG Fc fusion; chain copies: 2; label: 5' 32P. The protocol:
Eleven rounds of selection were performed with increasing stringency throughout the selection process by increasing the RNA: OX40 protein ratio in the selection reaction. Aptamers from rounds 9 and 11 DNA were cloned into a plasmid vector, and single colonies were sequenced and amplified by low cycle PCR amplification following by in vitro transcription. Binding constants for the clones were determined using filter-binding assays in a buffer composed of 20 mM Hepes pH 7.4, 150 mM NaCl, 2 mM CaCl2. To determine the affinities of monomeric aptamers (e.g., which may be expressed as Kd or dissociation constant), serial dilutions of murine OX40 IgG Fc fusion protein, human IgG1, or protein G were incubated with monomeric 5′ ³²P radiolabeled aptamers at 2000 cpm/μL. The mixture was passed over a stack of membranes consisting of a nitrocellulose membrane and nylon membrane through application of a vacuum. The membranes were exposed to a phosphoimager screen, scanned and quantitated using a phosphoimager. Finally, differential fractions of RNA bound were calculated and graphed using commercially available software, and affinity was then expressed as Kd. The predicted secondary structure of the resultant nucleic acid aptamers was determined by utilizing the algorithm m-fold using default settings for folding parameters. Illustrative examples of the nucleic acid aptamers isolated from the aforementioned selections against OX40 are shown in Table 2; wherein nucleic acid sequences comprising SEQ ID NOs: […] represent the variable regions from clones with binding specificity to OX40; and a nucleic acid sequence comprising SEQ ID:87 represents the RNA library constant regions, with a constant region (e.g., nucleic acid bases in positions 1-41 of […]) flanking the 5′ end of the variable regions, a constant region (e.g., nucleic acid bases in positions 82-106 of SEQ ID NO:87) flanking the 3′end of the variable regions, and the variable regions being designated by N(40) in Table 2 (nucleic acid bases in positions 42-81 of SEQ ID NO:87). It is understood by those skilled in the art that the variable regions may be flanked by constant regions other than those comprising the constant regions depicted in SEQ ID NO: 87, while still retaining binding activity for OX40.

B1: OX40 aptamer SEQ 82 (ssRNA)
RNA: GGGAGGACGAUGCGGCUUUUGAAUGCUCCCUUCACUCCAAGCGGCAGCCUAUCGUCAGACGACUCGCUGAGGAUCCGAGA
modifications: 2'-F pyrimidines, 2'-OH purines
Consider B1, for which the binding result is on record as “binds”.

B2: OX40 aptamer SEQ 78 (ssRNA)
RNA: GGGAGGACGAUGCGGAUACCAGGAUCACAUCCUGAGGAACCCCGGCUCCCAACCUCAGACGACUCGCUGAGGAUCCGAGA
modifications: 2'-F pyrimidines, 2'-OH purines
For the molecule B2, the binding result is “binds”.

B3: OX40 aptamer SEQ 86 (ssRNA)
RNA: GGGAGGACGAUGCGGCCGUCAACCAAUCUCUCGCUUCACACGGCCAUGCCUCCAUCAGACGACUCGCUGAGGAUCCGAGA
modifications: 2'-F pyrimidines, 2'-OH purines
On to B3, for which the binding result is listed as “binds”.

B4: OX40 aptamer SEQ 84 (ssRNA)
RNA: GGGAGGACGAUGCGGCAACCCAUCCAUACCAACAUGGAGCUAAUGUUAGUCAACGCAGACGACUCGCUGAGGAUCCGAGA
modifications: 2'-F pyrimidines, 2'-OH purines
B4: the binding result is recorded as “binds”.

B5: OX40 aptamer SEQ 77 (ssRNA)
RNA: GGGAGGACGAUGCGGCAGUCUGCAUCGUAGGAAUCGCCACCGUAUACUUUCCCACCAGACGACUCGCUGAGGAUCCGAGA
modifications: 2'-F pyrimidines, 2'-OH purines
With B5, the binding result is listed as “binds”.

B6: OX40 aptamer SEQ 81 (ssRNA)
RNA: GGGAGGACGAUGCGGAUACCAGCGAAUAACUCGCUGAGGAACCCGACUCACAAACAGACGACUCGCUGAGGAUCCGAGA
modifications: 2'-F pyrimidines, 2'-OH purines
Take B6: the binding result is recorded as “binds”.

B7: OX40 aptamer SEQ 79 (ssRNA)
RNA: GGGAGGACGAUGCGGCUUUAAUCCUCGCACUCAGCGCGCAUCACCCUUGACAUCACAGACGACUCGCUGAGGAUCCGAGA
modifications: 2'-F pyrimidines, 2'-OH purines
Turning to B7, the binding result is listed as “binds”.

B8: OX40 aptamer SEQ 83 (ssRNA)
RNA: GGGAGGACGAUGCGGAUACCACCUAGUGUGAGGAACCCCGCUUCCUAGACUGCGCAGACGACUCGCUGAGGAUCCGAGA
modifications: 2'-F pyrimidines, 2'-OH purines
For B8, the binding result was “binds”.

B9: OX40 aptamer SEQ 85 (ssRNA)
RNA: GGGAGGACGAUGCGGCACUAACUCCAGCGACUCCAUCGCCAUUCCAACUCUACGCCAGACGACUCGCUGAGGAUCCGAGA
modifications: 2'-F pyrimidines, 2'-OH purines
For B9, the binding result was “binds”.

B10: OX40 aptamer SEQ 80 (ssRNA)
RNA: GGGAGGACGAUGCGGCAAACCAGCUAUUUCCUGAGGUACCCCGGCUCUCCAUGGCAGACGACUCGCUGAGGAUCCGAGA
modifications: 2'-F pyrimidines, 2'-OH purines
As for B10, the binding result is reported as “binds”.
